Where two headings read alike, the source gives them in different places.
B1: CD137-specific antibody of SEQ ID NOs: 34 and 35 (antibody, human IgG4 S228P, kappa, V domains shown)
VH: QVQLQQWGAGLLKPSETLSLTCAVYGGSFSGYYWSWIRQSPEKGLEWIGEINHGGYVTYNPSLESRVTISVDTSKNQFSLKLSSVTAADTAVYYCARDYGPGNYDWYFDLWGRGTLVTVSS
VL: EIVLTQSPATLSLSPGERATLSCRASQSVSSYLAWYQQKPGQAPRLLIYDASNRATGIPARFSGSGSGTDFTLTISSLEPEDFAVYYCQQRSNWPPALTFGGGTKVEIKR
notes: also called antibody 20H4.9
B2: fusion polypeptide of SEQ ID NOs: 53 and 54 (bispecific antibody, human IgG2, lambda)
chain 1: EVQLVQSGAEVKKPGESLRISCKGSGYSFSTYWISWVRQMPGKGLEWMGKIYPGDSYTNYSPSFQGQVTISADKSISTAYLQWSSLKASDTAMYYCARGYGIFDYWGQGTLVTVSSASTKGPSVFPLAPCSRSTSESTAALGCLVKDYFPEPVTVSWNSGALTSGVHTFPAVLQSSGLYSLSSVVTVPSSNFGTQTYTCNVDHKPSNTKVDKTVERKCCVECPPCPAPPVAGPSVFLFPPKPKDTLMISRTPEVTCVVVDVSHEDPEVQFNWYVDGVEVHNAKTKPREEQFNSTFRVVSVLTVVHQDWLNGKEYKCKVSNKGLPAPIEKTISKTKGQPREPQVYTLPPSREEMTKNQVSLTCLVKGFYPSDIAVEWESNGQPENNYKTTPPMLDSDGSFFLYSKLTVDKSRWQQGNVFSCSVMHEALHNHYTQKSLSLSPGKGGGGSGGGGSGGGGSQDSTSDLIPAPPLSKVPLQQNFQDNQFQGKWYVVGRAGNVGLREDKDPPKMWATIYELKEDKSYDVTNVRFARKKCTYSIGTFVPGSQPGEFTLGQIKSEPGGTANLVRVVSTNYNQHAMVFFKEVYQNREIFFIILYGRTKELTSELKENFIRFSKSLGLPENHIVFPVPIDQCIDG
chain 2: SYELTQPPSVSVSPGQTASITCSGDNIGDQYAHWYQQKPGQSPVLVIYQDKNRPSGIPERFSGSNSGNTATLTISGTQAMDEADYYCATYTGFGSLAVFGGGTKLTVLGQPKAAPSVTLFPPSSEELQANKATLVCLISDFYPGAVTVAWKADSSPVKAGVETTTPSKQSNNKYAASSYLSLTPEQWKSHRSYSCQVTHEGSTVEKTVAPTECS
B3: bispecific fusion polypeptide of SEQ ID NO: 46 (designed binder)
chain: QDSTSDLIPAPPLSKVPLQQNFQDNQFQGKWYVVGVAGNGMLREDKDPLKMRATIYELKEDKSYDVTSVAFRNKKCHYKIGTFVPGSQPGEFTLGQIKSGPGETSNLVRVVSTNYNQHAMVFFKEVRQNREWFFITLYGRTKELTSELKENFIRFSKSLGLPENHIVFPVPIDQCIDGGGGGSGGGGSQDSTSDLIPAPPLSKVPLQQNFQDNQFHGKWYVVGQAGNIRLREDKDPIKMMATIYELKEDKSYDVTMVKFDDKKCMYDIWTFVPGSQPGEFTLGKIKSFPGHTSSLVRVVSTNYNQHAMVFFKFVFQNREEFYITLYGRTKELTSELKENFIRFSKSLGLPENHIVFPVPIDQCIDG
B4: bispecific fusion polypeptide of SEQ ID NO: 47 (designed binder)
chain: QDSTSDLIPAPPLSKVPLQQNFQDNQFQGKWYVVGVAGNGMLREDKDPLKMRATIYELKEDKSYDVTSVAFRNKKCHYKIGTFVPGSQPGEFTLGQIKSGPGETSNLVRVVSTNYNQHAMVFFKEVRQNREWFFITLYGRTKELTSELKENFIRFSKSLGLPENHIVFPVPIDQCIDGGGGGSGGGGSQDSTSDLIPAPPLSKVPLQQNFQDNQFHGKWYVVGQAGNIRLREDKDPIKMMATIYELKEDKSYDVTMVKFDDKKCMYDIWTFVPGSQPGEFTLGKIKSFPGHTSSLVRVVSTNYNQHAMVFFKFVFQNREEFYITLYGRTKELTSELKENFIRFSKSLGLPENHIVFPVPIDQCIDGGGGGSGGGGSQDSTSDLIPAPPLSKVPLQQNFQDNQFHGKWYVVGQAGNIRLREDKDPIKMMATIYELKEDKSYDVTMVKFDDKKCMYDIWTFVPGSQPGEFTLGKIKSFPGHTSSLVRVVSTNYNQHAMVFFKFVFQNREEFYITLYGRTKELTSELKENFIRFSKSLGLPENHIVFPVPIDQCIDG
B5: lipocalin mutein of SEQ ID NO: 8 (designed binder)
chain: QDSTSDLIPAPPLSKVPLQQNFQDNQFQGKWYVVGVAGNGMLREDKDPLKMRATIYELKEDKSYDVTSVAFRNKKCHYKIGTFVPGSQPGEFTLGQIKSGPGETSNLVRVVSTNYNQHAMVFFKEVRQNREWFFITLYGRTKELTSELKENFIRFSKSLGLPENHIVFPVPIDQCIDG

Key:
[1] = biological target: T1, recombinant human CD137-Fc fusion protein (#838-4B-100, R&D Systems) (human, UniProt Q07011 24-186); assay: ELISA, CD137-Fc coated, anti-human IgG-HRP detection
T1 construct: also called Fc-fusion of human CD137; not shown: Fc part of the bought fusion protein, not described
Description: The antibody of SEQ ID NOs: 34 and 35 served as the positive control. The target was dissolved in PBS (1 μg/mL) and coated overnight on microtiter plates at 4° C. The plate was washed after each incubation step with 100 μL PBS-T five times. The plates were blocked with 2% BSA (w/v) in PBS-T for 1 h at room temperature and subsequently washed. Different concentrations of the CD137-specific antibody or the fusion polypeptides were added to the wells and incubated for 1 h at room temperature, followed by a wash step. Bound fusion protein was detected after incubation for 1 h at room temperature with 1:5000 diluted mouse anti-human IgG Fab antibody conjugated to HRP (Jackson Laboratories) in PBS-TB. After an additional wash step, fluorogenic HRP substrate (QuantaBlu, Thermo) was added to each well and the fluorescence intensity was detected using a fluorescence microplate reader.
The result of the experiment is depicted in FIG. 3, together with the fit curves resulting from a 1:1 binding sigmoidal fit, where the EC50 value and the maximum signal were free parameters, and the slope was fixed to unity.

[2] = biological target: T1, recombinant human CD137-Fc fusion …; assay: SPR, biotinylated CD137-Fc captured on CAP chip, 1:1 model, apparent affinity
Description: Briefly, biotinylated CD137-Fc was captured on a sensor chip CAP and four dilutions (20, 5, 1.3 and 0.3 nM) of each tested agent (fusion protein or SEQ ID NOs: 34 and 35) were prepared in running buffer and applied to the chip surface. Applying a flow rate of 30 μL/min, the sample contact time was 180 s and dissociation time was 600 s. All measurements were otherwise performed and analyzed as described in Example 5.

[3] = biological target: T2, recombinant human GPC3 (R&D Systems #2119-GP-050/CF) (human, UniProt P51654 25-559); assay: ELISA, GPC3 coated, anti-NGAL-HRP detection
T2 construct: also called Glypican-3; biotinylated human GPC3
T2 sequence (P51654 25-559 limits assumed): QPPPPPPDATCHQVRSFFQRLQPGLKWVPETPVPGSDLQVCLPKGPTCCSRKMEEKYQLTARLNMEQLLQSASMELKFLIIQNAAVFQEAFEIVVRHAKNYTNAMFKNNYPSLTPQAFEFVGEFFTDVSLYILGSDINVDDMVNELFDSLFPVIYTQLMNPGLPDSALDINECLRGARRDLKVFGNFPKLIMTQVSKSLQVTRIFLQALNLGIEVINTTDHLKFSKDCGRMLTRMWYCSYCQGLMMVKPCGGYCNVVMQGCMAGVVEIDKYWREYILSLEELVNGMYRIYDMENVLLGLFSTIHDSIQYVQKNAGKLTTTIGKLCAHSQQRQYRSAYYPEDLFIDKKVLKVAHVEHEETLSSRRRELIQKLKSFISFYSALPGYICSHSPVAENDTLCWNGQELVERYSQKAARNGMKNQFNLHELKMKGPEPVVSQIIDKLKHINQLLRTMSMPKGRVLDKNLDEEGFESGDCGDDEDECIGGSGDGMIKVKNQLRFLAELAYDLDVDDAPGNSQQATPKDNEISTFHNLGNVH
From the text: (§1) GPC3 was coated on a microtiter plate and the tested molecules were titrated. Bound molecules were detected via an HRP-labeled anti-human NGAL-specific antibody as described in Example 12. The data was fitted with a 1:1 binding model with EC50 value and the maximum signal as free parameters, and a slope that was fixed to unity.

[4] = biological target: T1, recombinant human CD137-Fc fusion …; assay: SPR, CD137-Fc captured by anti-human Fc antibody on CM5 chip, 1:1 model
Description: Binding affinities of the CD137-binding lipocalin mutein and the bispecific polypeptides of SEQ ID NO: 46 and SEQ ID NO: 47 to recombinant human CD137-Fc fusion protein (#838-4B-100, R&D Systems) were determined by Surface Plasmon Resonance using a Biacore T200 instrument (GE Healthcare) in analogy to Example 6. Prior to the SPR affinity assay, a CM5 sensor chip was derivatized with an anti-human Fc antibody using the Human Antibody Capture Kit (GE Healthcare # BR-1008-39) according to the manufacturer's instructions.
Four different concentrations (1000 nM, 200 nM, 40 nM and 8 nM) of the bispecific polypeptides were prepared in running buffer (10 mM HEPES, 150 mM NaCl, 0.05% v/v Surfactant P20, 3 mM EDTA, pH 7.4 (GE Healthcare)) and applied to the chip surface. Applying a flow rate of 30 μL/min, the sample contact time was 180 s and dissociation time was 600 s. All measurements were performed at 25° C. […] Prior to the protein measurements three regeneration cycles were performed for conditioning purposes. Data were evaluated with Biacore T200 Evaluation software (V 2.0). Double referencing was used and the 1:1 Binding model was used to fit the raw data.

[5] = biological target: T1, recombinant human CD137-Fc fusion …; assay: ELISA, CD137-Fc coated, as described in Example 3
[6] = biological target: T1, recombinant human CD137-Fc fusion …; assay: dual-binding ELISA: CD137-Fc coated, fusion titrated, biotinylated GPC3 detected with Extravidin-HRP
Description: FIG. 16: provides a representative experiment in which the ability of two bispecific fusion polypeptides of SEQ ID NO: 46 and SEQ ID NO: 47 to bind the targets, GPC3 and CD137, simultaneously was determined. Recombinant CD137-Fc fusion protein was coated on a microtiter plate, followed by a titration of the fusion protein. Subsequently, a constant concentration of biotinylated human GPC3 was added, which was detected via HRP-labeled extravidin as described in Example 16. The data was fitted with a 1:1 binding model with EC50 value and the maximum signal as free parameters, and a slope that was fixed to unity.
The result of the experiment is depicted in FIG. 16, together with the fit curves resulting from a 1:1 binding sigmoidal fit, where the EC50 value and the maximum signal were free parameters, and the slope was fixed to unity.

[7] = biological target: T2, recombinant human GPC3 (R&D Systems …); assay: ELISA, GPC3 coated, anti-NGAL-HRP detection; remark: listed apart in the source
From the text: as §1, with “human” for “anti-human”, “14.” for “12.”

[8] = biological target: T2, recombinant human GPC3 (R&D Systems …); assay: SPR, biotinylated fusion captured on CAP chip, GPC3 as analyte (11-300 nM)
Description: The data were double-referenced by subtraction of the corresponding signals measured for the control channel (loaded with Biotin CAPture reagent only) and by subtraction of buffer injections from the binding responses. Association rate constant kₐ and dissociation rate constant kd for the binding reaction were determined using Biacore T200 Evaluation Software V2.0 for data processing and kinetic fitting.

Row | Binder | EC50 [1] [nM] | Kd [2] [nM] | EC50 [3] [nM] | Kd [4] [pM] | EC50 [5] [nM] | EC50 [6] [nM] | EC50 [7] [nM] | Kd [8] [nM]
1 | B1 | 1.5 | 0.092 |  |  |  |  |  | 
2 | B2 |  |  | 0.62 |  |  |  |  | 
3 | B3 |  |  |  | 1.6 | 0.2 | 7.3 | 0.14 | 4.3
4 | B4 |  |  |  | 0.6 | 0.26 | 7.47 | 0.16 | 3.5
5 | B5 |  |  |  |  |  |  | 0.24 | 
